# According to the supplement of paper PMC9170038:
# Tested on: K4 kissing-loop RNA reporter
# Test: apparent KD of K4 kissing-loop reporter; higher = weaker reporter binding
# Conditions: Eterna round: R107
# Description: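 RNA-MaP round R107: designed RNA switches with theophylline, tryptophan, arginine or FMN aptamers are transcribed on-chip within common flanks. They are titrated with a labelled K4 kissing-loop RNA reporter in RNA-MaP buffer (100 mM Tris pH 7.5, 80 mM KCl, 4 mM MgCl2), without ligand or with the indicated ligand. Median apparent KD per design.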
# [1] = input ligand: theophylline 20 uM
# [2] = input ligand: tryptophan 2.4 mM
# 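Further: bound reporter read as fluorescence of individual clusters on recovered sequencing chips by microscopy, with normalized cluster intensities fitted with a binding model.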
Sequence,apparent KD of K4 kissing-loop reporter (input ligand: FMN 200 uM) [nM],apparent KD of K4 kissing-loop reporter (input ligand: arginine 13.2 mM) [nM],apparent KD of K4 kissing-loop reporter (input ligand: none) [nM],apparent KD of K4 kissing-loop reporter [1] [nM],apparent KD of K4 kissing-loop reporter [2] [nM]
UGGAGUUGACGAAAAGUCAACUCCUGAGAUACCAGUGACGAAAGUCACCCUUGGCAGCUCACUGCCAGUGAUGUUGGUAAAUAAA [#OpenEnded 3],78.1,92.5,159,568,81.8
GGAUAGGACAUAGGAUAUGGGCUAGGCAAGAAUAACUUGUCUAGCAAAUCCAUGAGGAGUGAUGUUCCAGAAGGGUGUCCUAUCG [FmnBX 1 U11+G75],194,105,99.4,111,89.9
GCGGGCCCGGGAGGAUAUGAGUCGAGUGAUGUUCGGCGGUCCAUGCCGUUGCGGCGUUAAGCCCUUUUAGAAGGCCCGGGCCCGC [#2 Exclusion - FMN B Attempt #2 (HarryS)],208,137,161,138,184
UGUGCCAACAGUGAUACCAGCGUGGAGUGAUGUUCCGAGGAUCGGAGUGAUGUUCCGAAGCGCCCUUGGCAGCGCAGAAGCGCGA [Exclusion Theophylline B GF 26],239,156,186,189,182
GAGGUACAGGCGGCCGCCACUAGUGAUGUUAGUGAUAGAAGAUAUAGUAAAUAUCGGCAUGUAGAUAGGACCGGGCCUGGUGGAG [vvgtcmullin],291,234,288,327,287
AUUCGAUCAGUGAUGUUGAUCAAAGUCGAAGGAGCGGACGAAAGUCCAGGUAGGUCGCGACUACAAGGUGUUAAGACACCUCGAA [Spvincent t9 mod #OpenEnded],246,211,237,208,224
CAUGGAGUGAUGCUCCAUGAUCGGGCUUGGCAGGAUAUGGGAUCUUCCAGAAGGGCCGAUCCCAGCGAGUGAUGUUCGCUGGUCU [Exclusion FMN A GF 27],119,107,113,116,108
GAUAUAGUGAUGUUAUAUACUGAUAGACAACGAGGACCGGUACGGCCGCCACUCGAGAGGGUGAAAUUAAUGAUAAAAUAAUAAU [ExyTryA#2],322,351,356,307,270
GGCCGGAAGGCGAGCGCUCCCACUCCGGAAGGAGCGCCCGCAAGGGCAGGUAGGUCGCCGGAGUGAUGUUCCGGUGGAGGGCUCG [#2 Exclusion - Arginine A Attempt #20 (Inspired by Omei)],185,308,379,8.89,136
UCUGGAGUAUAUGAUACCAGCAGUGAGAGACAGGAAGUAUAGUGAUGUUAUAUGAGAGAAUGCCCUUGGCAGCGUGUGCGGUGGG [SSTheophylB.R],94.3,85,71.1,106,62.7
UUAUCUAUAUUCGAUACCAGUACCCUGUGUGUUGAUCCUUUUAUAAGUGAUGUUUAUGAGUACCCUUGGCAGCGGGUAUGGGUUU [KL-XTheo-B17],815,734,883,944,712
CCUCACGUAGGACUAGUGAUGUUAGACUACCGAGGACCGGUACGGCCGCCACUCGUCGUACAAGAUAACCUUCCGCCAGUAUACG,110,85.1,98.9,88.4,140
